Measured values reported in the supplement of paper PMC9170038.

System: MS2 coat protein
Assay: apparent KD of MS2 coat protein; designed switch direction (-1 OFF switch, 1 ON switch): -1; higher = weaker reporter binding
Procedure, shortened: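 Transcription of designed RNA switches on Illumina chips was done by stalled E. coli RNA polymerase. SNAP-549-labelled MS2 coat protein was then titrated in doubling steps from 0.7 or 1.5 nM to 3 µM, with steps of 0.8–1.5 h at the lowest and 10–20 min at the highest concentration. The per-design median over clusters of curve-fitted normalised fluorescence is reported as apparent KD.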

[1] = Eterna round: R95, input ligand: microRNA oligo, concentration not stated
[2] = input ligand: microRNA oligo, concentration not stated
[3] = Eterna round: R95, input ligand: FMN 200 uM
[4] = Eterna round: R95, input ligand: none

Row | Sequence | apparent KD of MS2 coat protein [1] | apparent KD of MS2 coat protein (input ligand: FMN 200 uM) | apparent KD of MS2 coat protein (input ligand: none) | further results
1 | GUGUGCAGAGGAUAUACAGAGGAAAAGAAGAAAGAAGAGGGACAUGAGGAUCACCCAUGUAGAAGGCUGAGUGU [Excluse me!! 24 - Jieux - Exclusion 2] (puzzle: Exclusion 2) | 30.4 nM | – | – | –
2 | GUGUGGCCUGUAGGAUAUGGUUCCGUUUCGGUUCCAGAAGGACACGAGGAUACAUGAGGAUCACCCAUGUGCUCGUCACUGUGC [salish99_ExNG1_r04_404] (Eterna round: R96, puzzle: Exclusion NG 1) | – | 13.2 nM | 18.2 nM | apparent KD of MS2 coat protein [2]: 11.5 nM
3 | GUGUGUUGAUUAGGAUAUGCUCUAAGCAAUCGGGCAGAAGGAGUUAGACAUGAGGAUCACCCAUGUAAAUAUCGGAUCCCAACG [Eternabot solution 17] (Eterna round: R96, puzzle: Exclusion NG 1) | – | 18.6 nM | 19.3 nM | apparent KD of MS2 coat protein [2]: 16.2 nM
4 | GUUAAACAUGAGGAUCACCCAUGUAAGGAUAUGCUGCGGUCGCGAUGAAGUGACUGCAGCAGAAGGUACAAAUG [Mat - Mod of JL D59] (puzzle: Exclusion 1) | 92 nM | – | – | apparent KD of MS2 coat protein [3]: 89.8 nM; apparent KD of MS2 coat protein [4]: 102 nM
5 | GUUAAACAUGAGGAUCACCCAUGUAAGGAUAUGCUGCGGUCGCGAUGAAGUGACUGCAGCAGAAGGUACAAUUG [Mat - Mod of JL D52] (puzzle: Exclusion 1) | 88.8 nM | – | – | –
6 | GUUAAACAUGAGGAUCACCCAUGUAAGGAUAUGCUGCGGUCGCGCUGACGUGACUGCAGCAGAAGGUACAAUUG [Mat - Mod of JL D51] (puzzle: Exclusion 1) | 64.8 nM | – | – | –
7 | GUUAACGAAGAGGAUAUAUGAUAUCAAAGCUUCAUAGAAGGCUUCACAUGAGGAUCACCCAUGUGAUCUUCAAU [jl-ex6-4.08 ViennaUCT mod] (Eterna round: R97, puzzle: Exclusion 6) | – | 232 nM | 42.6 nM | –
8 | GUUAACGAAGAGGAUAUAUGAUAUCAAAGCUUCAUAGAAGGCUUCACAUGAGGAUCACCCAUGUGAUCUUCUUU [jl-ex6-4.09 ViennaUCT mod] (Eterna round: R97, puzzle: Exclusion 6) | – | 44.2 nM | 15.1 nM | –
9 | GUUAAGGUAGGAUAUACGAUAAUAUAGGGUAGAUAUAUAACACAUGAGGAUCACCCAUGUAGAAGGACCAAGUG [Mat - Exclusion 2 - Mod of my Tesla design - D60] (puzzle: Exclusion 2) | 43.4 nM | – | – | –
10 | GUUAAGUGAGGAUAUGGUGAGUAGUGCCUGAGCGCUGCUCACCAGAAGGCACAUGAGGAUCACCCAUGUAUAGC [JL-ex4-2.06 denovo] (puzzle: Exclusion 4) | 15.2 nM | – | – | –
11 | GUUAGACAUGAGGAUCACCCAUGUGAGGAUAUGAUGCGAAUAAUGAAUGAAGAAAGCAUCAGAAGGCACAUAUG [Mat - Mod of Hyphema D29] (puzzle: Exclusion 1) | 296 nM | – | – | apparent KD of MS2 coat protein [3]: 375 nM; apparent KD of MS2 coat protein [4]: 221 nM
12 | GUUAGUAUCUAGGAUAUCUAGUACAUAGUAUCUAGAGAAGGAGAUACAUGAGGAUCACCCAUGUUCUGUGUUCU [Exclusion 6 - 1:c] (puzzle: Exclusion 6) | 21.9 nM | – | – | –
13 | GUUAGUUAAGGAUAUACAGGGAGCUGCGGCGUCUCGCCGCAACAUGAGGAUCACCCAUGUAGAAGGUAGCCGUU [JL ViennaUCT Enbibi mod 8] (puzzle: Exclusion 2) | 53.2 nM | – | – | –
14 | GUUAGUUAAGGAUAUACUGGGAGCUGCGGCGUCUCGCCGCAACAUGAGGAUCACCCAUGUAGAAGGUGGCCAUU [JL ViennaUCT Enbibi mod 4] (puzzle: Exclusion 2) | 640 nM | – | – | –
15 | GUUAUCGCAGGAUAUUAGUACUUGUACAUGAGGAUCACCCAUGUUUAUUGGGACUAAGAAUAAGAAGGGCGAUGAA [JR_Ex5_Sub004] (Eterna round: R97, puzzle: Exclusion 5) | – | 21 nM | 17.8 nM | –
